Reference: patent publication US6461841B2, “L-amino acid oxidase from Rhodococcus species” (Degussa AG, priority 2000, dated 2002)

Columns and labels:
[1] = Storage stability of the L-amino acid oxidase at 4° C.; type: physicochemical, Rhodococcus opacus; conditions: several months; 0.7 mg/mL protein; 50 mM glycine NaOH buffer, pH 8.6; sterile conditions
[2] = Enzyme test of purification fractions with L-ala (o-dianisidine/POX, 450 nm); type: biochemical, Rhodococcus opacus; conditions: 0.2 M TEA-HCl, pH 7.6, 10 mM L-ala, 30° C.
Description: The cells were digested by means of wet grinding with glass beads. For this purpose, the moist bacteria mass (15 g) was suspended in 50 mM TEA-HCl buffer (pH 7.0), so that the concentration of the moist cell mass was 25%. The cell content substances were released from the ice-cooled suspension by means of mechanical digestion using a glass bead mill (SCP disintegrator, Innomed-Konsult AB, Sweden). For this purpose, the grinding container was filled with 100 mL glass beads (diameter 0.3 mm) and the cell suspension. Digestion was carried out at a stirring shaft speed of 3,000 rpm. The cooling mantle was filled with ice water before the start of the run.
15 g moist bacteria mass yielded 45 mL crude extract with a volume activity of 0.035 U/mL and a protein content of 9.4 mg/mL. From this, it can be calculated that approximately 150 units L-amino acid oxidase can be obtained from 10 L fermenter batch.
The enzyme can be purified by means of ion exchange chromatography, hydrophobic interaction chromatography, and chromatography with hydroxyl apatite as the column material. The crude extract was pumped onto a column (h 5.5×diameter 5 cm) packed with MarcoPrep High Q Support Material (Biorad, Hercules, USA), at a flow velocity of 0.2 mnL/min. The ion exchanger had previously been equilibrated with a buffer, which contained 50 mM TEA-HCl, pH 7.0. […]

[3] = Determination of the isoelectric point by isoelectric focusing; type: physicochemical, Rhodococcus opacus; conditions: carrier ampholytes on agarose, pH range 4-6
Description: The isoelectric point of the L-amino acid oxidase was determined using isoelectric focusing with carrier ampholytes on agarose, in a pH range of 4-6. The pI is at pH 4.8. Carboanhydrase, β-lactoglobulin, trypsin inhibitor, glucose oxidase were used as marker proteins.

[4] = pH dependence of the oxidation process; type: biochemical, Rhodococcus opacus; conditions: 80 mM TEA-HCl buffer; for L-alanine, L-phenylalanine and L-leucine
Description: The reaction speed of the oxidation of L-amino acids to keto acids in the presence of the L-amino acid oxidase was studied as a function of the pH in the reaction solution. The test batch (200 μL) had the following composition: 10 mM L-amino acid, 25 U/mL peroxidase from horseradish, 80 mM buffer with different pH values and compositions, 0.2 mg/mL o-dianisidine, enzyme in limiting amount.

[5] = Storage stability of the L-amino acid oxidase as a function of the pH; type: physicochemical, Rhodococcus opacus; conditions: after 100 hours in glycine NaOH buffer at pH 10 and 10.5; room temperature; 24 μg/mL protein
Description: c) Storage Stability of the L-amino Acid Oxidase as a Function of the pH L-amino acid oxidase was incubated in 0.2 M buffer of different compositions, at a protein concentration of 24, μg/mL, at room temperature. Afterwards, the residual activity was determined using 0.2 M TEA buffer, pH 7.6, and 10 mM L-ala. […] After 100 hours in glycine NaOH buffer, it was still possible to detect more than 90% activity at pH 10 and 10.5.

B1: L-amino acid oxidase: L-amino acid oxidase (L-AAO) from Rhodococcus opacus DSM 43250, SEQ ID NO: 2, homogeneously purified (protein, listed as Rhodococcus opacus)
chain: AGDLIGKVKGSHSVVVLGGGPAGLCSAFELQKAGYKVTVLEARTRPGGRVWTARGGSEETDLSGETQKCTFSEGHFYNVGATRIPQSHITLDYCRELGVEIQGFGNQNANTFVNYQSDTSLSGQSVTYRAAKADTFGYMSELLKKATDQGALDQVLSREDKDALSEFLSDFGDLSDDGRYLGSSRRGYDSEPGAGLNFGTEKKPFAMQEVIRSGIGRNFSFDFGYDQAMMMFTPVGGMDRIYYAFQDRIGTDNIVFGAEVTSMKNVSEGVTVEYTAGGSKKSITADYAICTIPPHLVGRLQNNLPGDVLTALKAAKPSSSGKLGIEYSRRWWETEDRIYGGASNTDKDISQIMFPYDHYNSDRGVVVAYYSSGKRQEAFESLTHRQRLAKAIAEGSEIHGEKYTRDISSSFSGSWRRTKYSESAWANWAGSGGSHGGAATPEYEKLLEPVDKIYFAGDHLSNAIAWQHGALTSARDVVTHIHERVAQEA
[1]
  storage stability at 4° C.: without any loss of activity
[2]
  Spec. act. (U/mg): 4.6 U/mg
[2]; listed as Hydroxyl apatite pool
  Spec. act. (U/mg): 4.61 U/mg
[3]
  isoelectric point (pI): 4.8
[4]
  pH optimum: 8.5
[5]
  residual activity: more than 90%
